Test results: PMC8362844 (Molecular pharmaceutics, 2020)

Biological target: the molecule itself
Assay: native gel or EMSA

B1: recombinant human alpha-N-acetylglucosamine-6-sulfatase with C-terminal c-myc tag (enzyme, UniProt P15586-1 37-552, looked up)
chain: VFGVAAGTRRPNVVLLLTDDQDEVLGGMTPLKKTKALIGEMGMTFSSAYVPSALCCPSRASILTGKYPHNHHVVNNTLEGNCSSKSWQKIQEPNTFPAILRSMCGYQTFFAGKYLNEYGAPDAGGLEHVPLGWSYWYALEKNSKYYNYTLSINGKARKHGENYSVDYLTDVLANVSLDFLDYKSNFEPFFMMIATPAPHSPWTAAPQYQKAFQNVFAPRNKNFNIHGTNKHWLIRQAKTPMTNSSIQFLDNAFRKRWQTLLSVDDLVEKLVKRLEFTGELNNTYIFYTSDNGYHTGQFSLPIDKRQLYEFDIKVPLLVRGPGIKPNQTSKMLVANIDLGPTILDIAGYDLNKTQMDGMSLLPILRGASNLTWRSDVLVEYQGEGRNVTDPTCPSLSPGVSQCFPDCVCEDAYNNTYACVRTMSALWNLQYCEFDDQEVFVEVYNLTADPDQITNIAKTIDPELLGKMNYRLMMLQSCSGPTCRTPGVFDPGYRFDPRLMFSNRGSVRTRRFSKHLL
modifications: N-glycosylated with high-mannose residues; mannose-6 phosphorylated at approximately 0.87% (W/W)
stoichiometry N: 2
